Test [1] addresses T1, NGAL rAg A119G displayed on yeast (human, UniProt P80188 21-198).
T1 construct: Yeast display AGA2 fusion as m5
T1 chain: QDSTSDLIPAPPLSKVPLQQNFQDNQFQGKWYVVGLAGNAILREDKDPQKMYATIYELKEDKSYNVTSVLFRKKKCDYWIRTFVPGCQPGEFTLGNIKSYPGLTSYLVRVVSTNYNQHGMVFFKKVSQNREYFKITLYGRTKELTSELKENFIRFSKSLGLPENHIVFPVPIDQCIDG
The test can be described thus: flow cytometry titration of the mAb on yeast displaying the NGAL antigen, detection with GaM-PE, fractional binding. (In general: Flow cytometry measures light scatter and fluorescence of single cells or particles in a stream.)

The target of test [2] is T2, NGAL rAg E147A displayed on yeast (human, UniProt P80188 21-198).
T2 construct: Yeast display AGA2 fusion as m5
T2 chain: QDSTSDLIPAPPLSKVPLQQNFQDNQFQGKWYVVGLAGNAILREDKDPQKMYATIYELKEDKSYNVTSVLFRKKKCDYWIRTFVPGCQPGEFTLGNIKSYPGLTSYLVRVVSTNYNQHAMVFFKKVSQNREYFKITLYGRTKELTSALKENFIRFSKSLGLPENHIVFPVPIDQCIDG
The test can be described thus: flow cytometry, mAb titrated on yeast displaying NGAL. As to the method: (§1) The side chain of each of the NGAL rAg residues identified from the epitope selections was altered by site-directed mutagenesis to alanine to confirm the functional epitope (direct contact residues) of each NGAL mAb subclone.
(§2) The change in Gibbs free binding energy (ΔΔG_Ala-WT) was determined to assess the energetic impact of each alanine substitution for mAb binding. The change in Gibbs free binding energy upon alanine substitution was calculated using the following equation [2],
(§3) For these experiments, observed fluorescence (F) was used to solve for KD using equation [1]. The KD derived from equation [1] one was then used in equation [2] to derive the change in Gibbs free binding energy upon alanine substitution. The KD is read from the abscissa of each of the curves at the inflection point.

Test [3] concerns the target T3, NGAL rAg H118A displayed on yeast (human, UniProt P80188 21-198).
T3 construct: Yeast display AGA2 fusion as m5
T3 chain: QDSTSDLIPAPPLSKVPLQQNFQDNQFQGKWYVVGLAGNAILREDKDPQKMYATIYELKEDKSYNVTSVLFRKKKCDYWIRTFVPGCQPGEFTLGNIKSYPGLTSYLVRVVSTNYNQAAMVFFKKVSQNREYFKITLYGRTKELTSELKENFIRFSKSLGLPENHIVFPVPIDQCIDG
The description is as above. On the procedure:
as §1, §2, §3

Test [4] addresses T4, NGAL rAg Q117A displayed on yeast (human, UniProt P80188 21-198).
T4 construct: Yeast display AGA2 fusion as m5
T4 chain: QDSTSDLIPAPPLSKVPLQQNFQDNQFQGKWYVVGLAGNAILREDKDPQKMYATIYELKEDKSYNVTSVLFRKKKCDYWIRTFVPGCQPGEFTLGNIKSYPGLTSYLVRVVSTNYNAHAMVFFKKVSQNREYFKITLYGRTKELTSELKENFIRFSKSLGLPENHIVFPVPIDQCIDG
The description is as above. As to the method: as §1, §2, §3

For test [5], the target named is T5, NGAL rAg S112A displayed on yeast (human, UniProt P80188 21-198).
T5 construct: Yeast display AGA2 fusion as m5
T5 chain: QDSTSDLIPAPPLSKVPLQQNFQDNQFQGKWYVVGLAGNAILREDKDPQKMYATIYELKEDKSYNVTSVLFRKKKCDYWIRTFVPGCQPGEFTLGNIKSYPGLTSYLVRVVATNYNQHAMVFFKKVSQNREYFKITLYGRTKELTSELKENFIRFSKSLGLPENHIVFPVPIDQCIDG
The test is described as above. As to the method: as §1, §2, §3

In test [6] the target is T1, NGAL rAg A119G displayed on yeast. Described as above. As to the method:
as §1, §2, §3

Test [7] has as its target T6, NGAL rAg L159A displayed on yeast (human, UniProt P80188 21-198).
T6 construct: Yeast display AGA2 fusion as m5
T6 chain: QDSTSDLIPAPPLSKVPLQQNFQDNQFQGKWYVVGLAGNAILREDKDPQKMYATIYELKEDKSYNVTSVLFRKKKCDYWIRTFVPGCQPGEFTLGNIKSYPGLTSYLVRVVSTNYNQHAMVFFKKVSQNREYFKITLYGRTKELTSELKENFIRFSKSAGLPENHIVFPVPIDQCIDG
The description is as above. On the procedure:
as §1, §2, §3

The target in test [8] is T7, NGAL rAg S14A displayed on yeast (human, UniProt P80188 21-198).
T7 construct: Yeast display AGA2 fusion as m5
T7 chain: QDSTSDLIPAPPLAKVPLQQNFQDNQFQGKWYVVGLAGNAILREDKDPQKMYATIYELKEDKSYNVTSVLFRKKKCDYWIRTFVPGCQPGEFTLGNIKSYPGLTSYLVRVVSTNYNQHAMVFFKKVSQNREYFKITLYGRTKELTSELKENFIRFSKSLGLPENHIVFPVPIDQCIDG
Described as above. As to the method: as §1, §2, §3

Test [9] addresses T8, NGAL rAg S158A displayed on yeast (human, UniProt P80188 21-198).
T8 construct: Yeast display AGA2 fusion as m5
T8 chain: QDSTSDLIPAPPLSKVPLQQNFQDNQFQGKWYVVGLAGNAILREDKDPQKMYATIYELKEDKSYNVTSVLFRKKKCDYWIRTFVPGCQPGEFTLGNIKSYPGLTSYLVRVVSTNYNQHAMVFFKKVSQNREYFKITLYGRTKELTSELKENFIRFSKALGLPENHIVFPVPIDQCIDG
The description is as above. On the procedure: as §1, §2, §3

The target in test [10] is T9, NGAL rAg G160A displayed on yeast (human, UniProt P80188 21-198).
T9 construct: Yeast display AGA2 fusion as m5
T9 chain: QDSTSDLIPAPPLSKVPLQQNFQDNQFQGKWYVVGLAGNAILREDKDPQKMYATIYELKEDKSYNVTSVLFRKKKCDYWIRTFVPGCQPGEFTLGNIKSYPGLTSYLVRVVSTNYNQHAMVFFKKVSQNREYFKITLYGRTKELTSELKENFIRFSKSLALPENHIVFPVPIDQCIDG
Described as above. As to the method: as §1, §2, §3

B1: anti-NGAL monoclonal antibody 1-2322-455 (antibody, V domains shown)
VH: EVQLVESGGGLVQPGGSLKLSCAASGFTFNNYYMSWVRQTPERRLEWVAYISSSGGSTYYSDSVRGRFTISRDTARNTLYLQMTSLKSEDTAMYYCARHFGDYSYFDYWGQGTTLTVSS
VL: DIQMTQSPASLSASVGETVTITCRASENFYSYLAWYQQKQGKSPQLLVYNAKTLAEGVPSRFSGSGSGTQFSLKINSLQPEDFGTYYCQHHYDIPLTFGAGTKLELKR
As a reminder, the EC50 (read off the curve) is the concentration that produces a half-maximal response. As a reminder, the Kd is the free concentration of one partner at which half of the binding sites on the other are occupied at equilibrium, for simple one-to-one binding. For B1, in test [1], the “EC50 (read off the curve)” value is roughly 0.007 nM. Moreover, the Kd in [2] is 492 nM; in [3] it was 0.114 nM; in test [4], 0.0307 nM; in test [5], 0.0793 nM; in test [6] it was 0.00783 nM. Moreover, the “ΔKD (KD against KD of WT)” value was 61000 fold in test [2]; 14.1 fold in [3]; 3.79 fold in test [4]; 9.79 fold in test [5]; 0.97 fold in test [6]. The “ΔΔG Ala-WT” value is 6.5 kcal/mol in [2]; 1.56 kcal/mol in [3]; 0.79 kcal/mol in test [4]; 1.35 kcal/mol in [5]; -0.02 kcal/mol in test [6].

B2: anti-NGAL monoclonal antibody 1-903-430 (antibody, V domains shown)
VH: KIQLVQSGPELKKPGETVKISCKASGYTFTNYGMNWVKQAPGKGLKWMGWININTGEPTYAEEFKGRFAFSLETSATTAFLQINNLKNEDTATYLCARDSYSGGFDYWGQGTIVTVSS
VL: DIVMTQSPSSLSVSAGEKVTLSCKSSQSLLISGDQKNYLAWYQQKPGQPPKLLIYGASTRDSGVPDRFTGSGSGADFTLTISSVQAEDLAVYYCQNDHSFPPTFGAGTKLELKR
For B2, the Kd in test [7] stood at 0.137 nM; in test [8] it was 0.281 nM; in test [9] it was 0.242 nM; in [10], 0.164 nM. The “ΔKD (KD against KD of WT)” value in test [7] worked out at 0.67 fold; in test [8] it was 1.38 fold; in test [9] it was 1.19 fold; in test [10] it was 0.8 fold. The “ΔΔG Ala-WT” value in test [7] is -0.23 kcal/mol; in [8], 0.19 kcal/mol; in [9], 0.1 kcal/mol; in test [10], -0.13 kcal/mol.

Values taken from patent US20090263894A1 (AbbVie / Abbott, published 2009).
